Measurements from the RNAGym collection of RNA variant scans (doi:10.1073/pnas.2313332121).

B1: TPR t1 (parent)
chain: GACCAAUCUGCCCUCAGAGCUCGAGAACAUCUUCGGAUGCAGAGGAGGCAGGCUUCGGUGGCGCGAUAGCGCCAACGUCCUCAACCUCCAAUGCAUCCCACCACAUGAUGAUGCCUGAAGAGCCUUGGUUUUUUG

Variants of: B1
Assay: polymerase ribozyme fitness, log enrichment relative to wild type (log ratio); higher = more active; in vitro selection for triplet polymerase activity
Outline: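 PCR was used to build mutant libraries for each subunit of a heterodimeric triplet polymerase ribozyme, which were then transcribed. A single in vitro selection round, in triplicate, used a frozen incubation at −7 °C and recovered extended constructs by gel excision, streptavidin beads and RT-PCR. Fitness is the logarithm of genotype enrichment relative to wild-type enrichment, averaged over replicates with inverse-variance weights. The logarithm is base 2, and after Illumina sequencing only genotypes with ≥10 input reads and ≥1 read per output were kept.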

Variant | polymerase ribozyme fitness (log ratio)
GACCAAUCUGCCCUCAGAGCUUGAGAACAUCUUCGGAUGCAGAGGAGGCAGGCUUCGGUGGCGUGAUAGCGCCAACAUCCUCAACCUCCAAUGCAUCCCACCACAUGAUGAUGCCUGAAGAGCCUUGGUUUUUUG [C22U C64U G77A] | -4.03
GACCAAUCUGCCCUCAGAGCUUGAGAACAUCUUCGGAUGCAGAGGAGGCAGGCUUUGGUGGCGCGAUAGCGCCAACGUCCUCAACCUCCAAUGCAUCCCACCACAUGAUGAUGUCUGAAGAGCCUUGGUUUUUUG [C22U C56U C114U] | -4.27
GACCAAUCUGCCCUCAGAGCUUGAGAACAUCUUCGGAUGCAGAGGCGGCAGGCUUCGGUGGCGCGAUAGCGCCAACGUCCUCAACCUCCAAUGCAUCCCACCACAUGAUGAUGCCUGAAGAGCCUUGGUUUUUUG [C22U A46C] | -3.65
GACCAAUCUGCCCUCAGAGCUUGAGAACAUCUUCGGAUGCAGAGGAGGCAGGCUUCGGUGGCGCGAUAGCGCCUACGUCCUCAACCUCCAAUGCAUCCCAACACAUGAUGAUGCCUGAAGAGCCUUGGUUUUUUG [C22U A74U C101A] | -5.04
GACCAAUCUGCCCUCAGAGCUGGAGAACAUCUUCGGAUGCAGAGGAGGCAGGCUUCGGUGGCGCGAUAGCGCCAACGUCCUCAACCUCCAAUGCAUCCCACCACAUGAUGAUGCCUGAAGAGCCUUGGUUUAUUG [C22G U132A] | -3.21
GACCAAUCUGCCCUCAGAGCUUGAGAACAUCUUCGGAUGCAGAGGAGGCAGGCUGCGGUGGCGCGAUAGCGACAACGUACUCAACCUCCAAUGCAUCCCACCACAUGAUGAUGCCUGAAGAGACUUGGUUUUUUG [C22U U55G C72A C79A C123A] | -6.59
GACCAAUCUGCCCUCAGAGCUUGAGAACAUCUUCGGAUGCAGAGGAGGCAGGCUUCGGUGGCGCGAUAGCGCCAACGUCCUCAACCUCCAAUGCAUCCCACCACAUGAUGAUGCCUGAAAAGCCUUGGUUUUUUG [C22U G120A] | -3.35
GACCAAUCUGCCCUCAGAGCUUGAGAACAUCUUCGGAUGCAGAGGAGGCAGGCUUCGGUGGCGCGAUAGCGCCAACGUCCUCAACCUCCGAUGCAUCCCAACACAUGAUGAUGACUGAAGAGCCUUGGUUUUUUG [C22U A90G C101A C114A] | -5.96
GACCAAUCUGCCCUCAGAGCUUGAGAACAUCUUCGGAUGCAGAGGAGUCAGGCUUCGGUGGCGCGAUAGCUCCAACGUCCUCAACCUCCAAUGAAUCCCACCACAUGAUGAUGCCUGAAGAGCCUUGGUUUUUUG [C22U G48U G71U C94A] | -6.57
GACCAAUCUGCCCUCAGAGCUUGAGAACAUCUUCGGAUGCAGAGGAGGCAGGCUUCGGUGGCGCGAUAGCGCCAACGUCCUCAACCUCCAAUGCAUCCCACCACAUGAUGAUGACUGAAGAGCCUUGGUUUUUUG [C22U C114A] | -4.76
GACCAAUCUGCCCUCAGAGCUUGAGAACAUCUUCGGAUGCAGAGGCGGCAGGCUUCGGUGACGCGAUAGCGCCAACGUCCUCAACCUCCAAUGCAUCCCACCACAUGAUGAUGCCUGAAGAGCCUUGGUUUUUUG [C22U A46C G61A] | -4.91
GACCAAUCUGCCCUCAGAGCUUGAGAACAUCUUCGGAUGCAUAGGAGGCAGGCUUCGAUGGCGCGAUAGUGCCAACGUCCUCAACCUCCAAUGCAUCCCACCACAUGAUGAUGCCUGAAGAGCCUUGGUUUUUUG [C22U G42U G58A C70U] | -5.05
GACCAAUCUGCCCUCAGAGCUUGAGAACAUCUUCGGAUGCAGAGGAGGCAGGCUUCGGUGGCGCGAUAGCGCCAACGACCUCAACCUCCAAUGCAUCCCACCACAGGAUGAUGCCUGAACAGCCUUGGUUUUUUG [C22U U78A U106G G120C] | -5.48
GACCAAUCUGCCCUCAGAGCUUGAGAACAUCUUCGGAUUCAGAGGAGGCAGGCUUCGGUCGCGCGAUAGCGCCAAUGACCUCAACCUCCAAUGCAUCCCACCACAUGAUGAUGCGUGAAGAGCCUUCGUUUUUUG [C22U G39U G60C C76U U78A C115G G127C] | -6.22
GACCAAUCUGCCCUCAGAGCUUGAGAACAUCUUCGGAUGCAGAGGAGGCGGGCUUCGGUGGCGCGAUAGCGCCAACGUCCUCAACCUCCAAUGCAUCCCACCAUAUGAUGAUGCCUGAAGAGCCUUGGUUUUUUG [C22U A50G C104U] | -3.86
GACCAAUCUGCCCUCAGAGCUUGAGAACAUCUUCGGAUGCAGAGGAGGCAGGCUUCAGUGGCUCGAUAGCGCCAACGUCCUCAACCUCCAAUGCAUCCCACCACAUGAUGAUGCCUGAAGAGCCUUGGUUUUUUG [C22U G57A G63U] | -5.87
GACCAAUCUGCCCUCAGAGCUUGAGAACAUCUUCGGAUGCAGAGGAGGCAGGGUUCGGUGGCGCGAUAGCGCCAACGUCCUCAACCUCCAAUGCAUCCCACCACAUGAUGAUGCCUGAAGAGCCUUGGUUUUUUG [C22U C53G] | -4.85
GACCAAUCUGCCCUCAGAGCUUGAGAACAUCUUCGGAUGCAGAGGAGGCAGGAUUCGGUGGCGCGAUAGCGCCAACGUCCUCAACCUCCAAUGCAUCCCACCACAUGAUGAUGCCUGAAGAGCCUUGGUUUUUUG [C22U C53A] | -4.52
GACCAAUCUGCCCUCAGAGCUGGAGAACAUCUUCGGAGGCAGAGGAGGCAGGCUUCGGUGGCGCGAUAGCGCCAACGUCCUCAACCACCAAUGCAUCGCACCACAUGAUGACGACUGAAGAGCCUUGGUUUUUUG [C22G U38G U87A C98G U112C C114A] | -6.53
GACCAAUCUGCCCUCAGAGCUUGAGAACAUCUUCGAAUGCAGAGGAGGCAGGCUUCGGUGGCGCGAUAGCGCCAAGGUCCUCAACCUCCAAUGCAUCCCACCACAUGAUGAUGCCUGAAGAGCCUUGGUUUUUUG [C22U G36A C76G] | -5.14
GACCAAUCUGCCCUCAGAGCUUGAGAACAUCUUCGGGUGCAGAGGAGGCAGGCUUCGGUGCCGAGAUAGCGCCAACGUCCUCAACCUCCAAUGCAUCCCACCACAUGAUGACGCCUGAAGAGCCUGGAUUUUUUG [C22U A37G G61C C64A U112C U126G G128A] | -6.8

Variant | polymerase ribozyme fitness (log ratio)
GACCAAUCUGCCCUCAGAGCUUGAGAACAUCUUCGGAUGCAGAGGAGGCAGGCUUCGGUGGCGUGAUAGCGCCAACGUCCUCAACCUCCAAUGCAUCCCACCACAUGAUGAUGCCUGAAGAGCCUUGGUUUUUUG [C22U C64U] | -3.81
GACCAAUCUGCCCUCAGAGCUUGAGAACAUCUUCGGAUGCAGAGGAGGCAGGCUUAGGUGGCGCGAUAUCGCCAACGCCCUCAACCUCCAAUGCAUCCCACCACAUGAUGAUGCCUGAAGAGCCUUGGUUUUUUG [C22U C56A G69U U78C] | -3.41
GACCAAUCUGCCCUCAGAGCUUGAGAACAUCUUCGGAUGCAGAGUAGGAAGGCUUCGGUGGCGCGAUAGCGCCAACGUCCUCAACCUCCAAUGCAUCCCACCACAAGAUGAUGCCUGAAGAGCCUUGGUUUUUUG [C22U G45U C49A U106A] | -5.79
GACCAAUCUGCCCUCAGAGCUGGAGAACAUCUUCGGAUGCAGAGGAGGCAGGCUUCGGUGGCGCGAUAGCGCCAACGUCCUCAACCUCCAAUGCAUCCCACCACAGGAUGAUGCCUGAAGAGCCUUGGUUUUUUG [C22G U106G] | -3.47
GACCAAUCUGCCCUCAGAGCUUGAGAACAUCUUCGGAUGCAGAGGAGGCAGGCUUCGGUGGCGCGAUAGCGCCAACGUCCUCACCCUCCAAUGCAUCCCACCACAUGAUGAUGCCUGAAGAGCCUUGGUUUUUUG [C22U A84C] | -4.07
GACCAAUCUGCCCUCAGAGCUUGAGAACAUCUUCGGAUGCAGAGAAGGCAGGCUUCGGUGGCGCGAUAGCGCCAACGUCCUCAACCUCCAAUGCAUCCCACCACAUGAUGAUGCCUGAAGAGCCUUGGUUUUUUG [C22U G45A] | -4.02
GACCAAUCUGCCCUCAGAGCUUGAGAACAUCUUCGGAUGCAGAGUAGGCAGGCUUCGGUGGCGCGAUAGCGCCAACGUCCUCAACCUCCAAUGCAUCCCACCACAUGAUGAUGCCUGAAGAGCCUUGGUUUUUUG [C22U G45U] | -4.99
GACCAAUCUGCCCUCAGAGCUUGAGAACAUCUUCGGUUGCAGAGGAGGCAGGCUUCGGUGGCGCGAUAUCGCCAACGCCCUCAACCUCCAAUGCAUCCCACCACAUGAUUAUGCAUGAAGAGCGUUGGUUUUUUG [C22U A37U G69U U78C G110U C115A C124G] | -3.86
GACCAAUCUGCCCUCAGAGCUUGAGAACAUCUUCGGAUGCAGAGGAGGCAGGCUUCGGUGGCGCGAUAGCGGCAACGUCCUCAACCUCCAAUGCAUCCCACCACAUGAUGAUGCCUGAAGAGCUUUGGUUUUUUG [C22U C72G C124U] | -3.08
GACCAAUCUGCCCUCAGAGCUUGAGAACAUCUUCGGAUGCAGAGUAGCCAGGCUUCGGUGGCGCGAUAGCGCCAACGUCCUCAACCUCCAAUGCAUCCCACAACAUGAUGAUGCCUGAAGAGCGUUGAUUUUUUG [C22U G45U G48C C102A C124G G128A] | -6.17
GACCAAUCUGCCCUCAGAGCUUGAGAAUAUCUUCGGAUGCAGAGGAGGCAGGCUUCGGUGGCGCGAUAGCGCCAACGUCCUCAACCUGCAAUGCAUCCCACCACAUGAUGAUGCCUGAAGAGCCUUGGUUUUUUG [C22U C28U C88G] | -7.29
GACCAAUCUGCCCUCAGAGCUUGAGAACAUCUUCGGAUGCAGAGGAGGCAGGCUUCGGUGGCGCGAUAGCGCCAACGUCCUCAACCUCCAAUGCAUCCCACCACAUGAUGAUUCCUGAAGAGCCUUGGUUUUUUG [C22U G113U] | -5.27
GACCAAUCUGCCCUCAGAGCUUGAGAACAUCUUCGGAUGCAGAGGAGGCAGGCUUCGGUGGCGCGAUAGCGCCAACGUCCUCAACCUCCAAUGCAUCCCACCACAUGAUGAUACCUGAAGAGCCUUGGUUUUUUG [C22U G113A] | -4.09
GACCAAUCUGCCCUCAGAGCUUGAGAACAUCUUCGGAUGCAGAGGAGGCAGGCUUCGGUGGCGCGAUAGCGCCAACGUCCUCAACCUCCAAUGCAUCCCAACACAUGAUGAUGCCUGAAGAGCCUUGGUUUUUUG [C22U C101A] | -4.34
GACCAAUCUGCCCUCAGAGCUGGAGAACAUCUUCGGAUGCAGAGGAGGCAGGCUUCGGUGGCGCGAUAGCGCCAACGUCCUCAACCACCAAUGCAUCCCACCACAUGAUGAUUCCUGAAGAGCCUUGGUUUUUUG [C22G U87A G113U] | -6.04
GACCAAUCUGCCCUCAGAGCUUGAGAACAUCUUCGGAUGCAGAGGAGGCAGGCUUCGGUGGCGCGAUAGCGCCAACGUCCUCAACCUCCAAUGCGUCCCACCACAUGAUGAUGCCUGAAGAGCCUUGGUUUUUUG [C22U A95G] | -3.7
GACCAAUCUGCCCUCAGAGCUUGAGAACAUCUUUGGAUGCAGAGGAGGCAGGCUUCGGUGGCGCGAUAGCGCCAACGUCCUCCACCUCCAAUGCAUCCCACCACAUGAUGAUGCCUGAAGAGCGUUGGUUUUUUG [C22U C34U A83C C124G] | -5.96
GACCAAUCUGCCCUCAGAGCUUGAGAACAUCUUCGGAUGCAGAGUAGGCAGGCUUCGGUGGCGCGAUAGCGACAACGUCCUCAACCUCCAAUGCAUCCCACCACAUGAUGAUGCCUGAAGAGCCUUGGUUUUUUG [C22U G45U C72A] | -4.82
GACCAAUCUGCCCUCAGAGCUUGAGAACAUCUUCGGAUGCAGAGGAGGCAGGCUUAGGUGGCGCGAUAGCGCCAACGUCCUCAACCUCCAAUGCAUCCCACCACAUGAUGAUGCCUGAAGAGCCUUGGUUUUUUG [C22U C56A] | -5.17
GACCAAUCUGCCCUCAGAGCUUGAGAACAUCUUCGGAUGCAGAGGAGGCAGGCUUCGGUGGCGCGAUAGCGGCAACGUCCUCAACCUCCAAUGCAUCCCACCACAUGAUGAUGCCUGAAGAGCCUUGGUUUUUUG [C22U C72G] | -4.14
GACCAAUCUGCCCUCAGAGCUUGAGAACAUCUUCGGAUGCAGAGGAGCCAGGGUUAGGUGGCGCGAUAGCGCCAACGUCCUCAACCUCCAAUGCAUCCCACCACAUGAUGAUGCCUGAAGAGCCUUGGUUUUUUG [C22U G48C C53G C56A] | -4.86
